Bounds are passed on as bounds.

The target in one experiment is HLA-DRB1*0101 (human). Nature of the experiment: inhibition of 125I-probe binding to purified HLA-DR.
By IC50 is commonly meant the concentration that gives 50% inhibition. A higher IC50 goes with weaker potency in that assay. Consider LLIIVLAIIAIEGDC [MAGE2.201 (15-mer)], for which the IC50 was at most 1000 nM.

LIIVLAIIAIEGDCA [MAGE2.202 (15-mer)] yielded an IC50 of at most 1000 nM.

A further experiment deals with HLA-B*0702 (human). Nature of the experiment: competition vs 125I probe peptide, purified HLA.
FPRALIETSYI [MAGE2.274.F1I11 FPRALIETSYI] gave a 50% inhibitory concentration (IC50) of 7.4 nM. This lies in the single-digit nanomolar range.

FPLWSQSI [MAGE3.77.F1 FPLWSQSI] came in with a half-maximal inhibitory concentration (IC50) of 122 nM.

For the molecule FPIGHLYIFA [MAGE3.170.F1 FPIGHLYIFA], the IC50 was 39 nM.

In turn, FPKAGLLIIV [MAGE3.196.F1 FPKAGLLIIV] displayed an IC50 of 220 nM.

Regarding FPTTMNYPLW [MAGE3.71.F1 FPTTMNYPLW], the IC50 came out at 220 nM.

The molecule FPKTGLLI [MAGE2.196.F1I8 FPKTGLLI] showed an IC50 of 134 nM.

Regarding FPTTMNYPL [MAGE3.71.F1 FPTTMNYPL], the concentration for half-maximal inhibition (IC50) stood at 6.4 nM.

As for FPTTMNYPI [MAGE3.71.F1I9 FPTTMNYPI], the IC50 was 59 nM. Compared with the last molecule, the IC50 is about 9.2-fold higher.

In the next experiment the target is HLA-B*3501 (human). Nature of the experiment: competition vs 125I probe peptide, purified HLA.
For FPRALIETSYI [MAGE2.274.F1I11 FPRALIETSYI], the concentration for half-maximal inhibition (IC50) was found to be 3600 nM.

As for FPRALVETSYV [MAGE3.274.F1 FPRALVETSYV], the IC50 stood at 4240 nM.

FPRALVETSYI [MAGE3.274.F1I11 FPRALVETSYI] came in with a concentration for half-maximal inhibition (IC50) of 5540 nM.

In the case of FPRALIETSYV [MAGE2.274.F1 FPRALIETSYV], the IC50 was 4500 nM.

The molecule FPLWSQSI [MAGE3.77.F1 FPLWSQSI] showed a concentration for half-maximal inhibition (IC50) of 1010 nM.

FPIGHLYIFA [MAGE3.170.F1 FPIGHLYIFA] had a half-inhibitory concentration (IC50) of 51 nM. Against the preceding molecule, the IC50 is about 20-fold lower.

In the case of FPIGHLYIFI [MAGE3.170.F1I10 FPIGHLYIFI], the IC50 was 139 nM.

In turn, FPKAGLLIIV [MAGE3.196.F1 FPKAGLLIIV] showed an IC50 of 878 nM.

FPHISYPPI [MAGE3.296.F1I9 FPHISYPPI] registered an IC50 of 360 nM. This IC50 is about 2.4-fold lower than that of the molecule before.

Regarding FPTTMNYPL [MAGE3.71.F1 FPTTMNYPL], the IC50 amounted to 4.5 nM.

Another experiment deals with HLA-B*5101 (human). Nature of the experiment: competition vs 125I probe peptide, purified HLA.
For FPRALIETSYI [MAGE2.274.F1I11 FPRALIETSYI], the concentration for half-maximal inhibition (IC50) amounted to 70 nM.

In the case of FPRALIETSYV [MAGE2.274.F1 FPRALIETSYV], the half-inhibitory concentration (IC50) turned out to be 128 nM.

The molecule FPIGHLYII [MAGE3.170.F1I9 FPIGHLYII] gave an IC50 of 5 nM.

FPIGHLYIFA [MAGE3.170.F1 FPIGHLYIFA] came in with an IC50 of 56 nM.

Take FPKAGLLIIV [MAGE3.196.F1 FPKAGLLIIV]: the concentration for half-maximal inhibition (IC50) was 190 nM.

FPKAGLLIII [MAGE3.196.F1I10 FPKAGLLIII] showed an IC50 of 65 nM.

In the case of FPHISYPPL [MAGE2.296.F1 FPHISYPPL], the IC50 was 177 nM.

In the case of FPTTMNYPL [MAGE3.71.F1 FPTTMNYPL], the IC50 was determined as 423 nM. Compared with the last molecule, the IC50 is about 2.4-fold higher.

In a further experiment the target is HLA-B*5301 (human). Nature of the experiment: competition vs 125I probe peptide, purified HLA.
Turning to FPRALIETSYI [MAGE2.274.F1I11 FPRALIETSYI], the IC50 was 465 nM.

FPRALVETSYI [MAGE3.274.F1I11 FPRALVETSYI] yielded an IC50 of 620 nM. The IC50 values of the last two molecules are within 1.5-fold of each other.

For FPRALIETSYV [MAGE2.274.F1 FPRALIETSYV], the IC50 was 7750 nM.

FPLWSQSI [MAGE3.77.F1 FPLWSQSI] came in with a half-inhibitory concentration (IC50) of 245 nM.

For the molecule FPIGHLYIFA [MAGE3.170.F1 FPIGHLYIFA], the IC50 turned out to be 179 nM.

Take FPIGHLYIFI [MAGE3.170.F1I10 FPIGHLYIFI]: the IC50 was 8.5 nM.

In turn, FPKAGLLIIV [MAGE3.196.F1 FPKAGLLIIV] registered an IC50 of 4650 nM.

In the case of FPKAGLLIII [MAGE3.196.F1I10 FPKAGLLIII], the half-inhibitory concentration (IC50) stood at 846 nM.

In turn, FPKAGLLI [MAGE3.196.F1I8 FPKAGLLI] registered a 50% inhibitory concentration (IC50) of 775 nM. The IC50 values of the last two molecules are within 1.5-fold of each other.

Consider FPKTGLLI [MAGE2.196.F1I8 FPKTGLLI], for which the 50% inhibitory concentration (IC50) is 3320 nM.

Regarding FPQGASSI [MAGE3.64.F1 FPQGASSI], the half-maximal inhibitory concentration (IC50) worked out at 3000 nM. This IC50 and that of the molecule before are within 1.5-fold of each other.

Consider FPHISYPPI [MAGE3.296.F1I9 FPHISYPPI], for which the concentration for half-maximal inhibition (IC50) came to 233 nM.

FPTTMNYPL [MAGE3.71.F1 FPTTMNYPL] showed a half-maximal inhibitory concentration (IC50) of 39 nM.

FPTTMNYPI [MAGE3.71.F1I9 FPTTMNYPI] displayed an IC50 of 8.5 nM. Against the preceding molecule, the IC50 is about 4.6-fold lower.

Another experiment has as its target HLA-B*5401 (human). Nature of the experiment: competition vs 125I probe peptide, purified HLA.
Molecule FPRALIETSYI [MAGE2.274.F1I11 FPRALIETSYI] came in with a concentration for half-maximal inhibition (IC50) of 127 nM. In other words, the sub-micromolar range.

As for FPRALVETSYI [MAGE3.274.F1I11 FPRALVETSYI], the IC50 worked out at 59 nM.

For FPIGHLYII [MAGE3.170.F1I9 FPIGHLYII], the IC50 was determined as 0.6 nM.

With FPIGHLYIFA [MAGE3.170.F1 FPIGHLYIFA], the 50% inhibitory concentration (IC50) came to 0.4 nM.

Molecule FPKAGLLIIV [MAGE3.196.F1 FPKAGLLIIV] registered an IC50 of 1.1 nM.

Take FPKAGLLI [MAGE3.196.F1I8 FPKAGLLI]: the half-inhibitory concentration (IC50) amounted to 46 nM. This IC50 is about 42-fold higher than that of the molecule before.

Molecule FPQGASSI [MAGE3.64.F1 FPQGASSI] registered a half-maximal inhibitory concentration (IC50) of 400 nM.

Consider FPHISYPPI [MAGE3.296.F1I9 FPHISYPPI], for which the IC50 came to 1.4 nM.

Take FPTTMNYPL [MAGE3.71.F1 FPTTMNYPL]: the IC50 worked out at 3 nM. This IC50 lies about 2.1-fold higher than the previous one.

As to FPTTMNYPI [MAGE3.71.F1I9 FPTTMNYPI], the concentration for half-maximal inhibition (IC50) was 1.5 nM.

A further experiment addresses HLA-A*0201 (human). Nature of the experiment: competition with 125I probe peptide, purified HLA.
For the molecule HLYIFATCLGL [MAGE3.174 11-mer HLYIFATCLGL], the IC50 worked out at 56 nM.

A further experiment deals with HLA-A*0202 (human). Nature of the experiment: competition with 125I probe peptide, purified HLA.
On to HLYIFATCLGL [MAGE3.174 11-mer HLYIFATCLGL], for which the IC50 turned out to be 741 nM.

For KIWEELSML [MAGE2.220 9-mer KIWEELSML], the IC50 was found to be 642 nM.

In turn, ALIETSYVKV [MAGE2.277 10-mer ALIETSYVKV] had an IC50 of 729 nM.

Another experiment deals with HLA-A*0203 (human). Nature of the experiment: competition with 125I probe peptide, purified HLA.
Turning to KIWEELSML [MAGE2.220 9-mer KIWEELSML], the half-inhibitory concentration (IC50) amounted to 175 nM.

In the case of KLAELVHFL [MAGE3.112L2 KLAELVHFL], the IC50 was 5.9 nM.

With KMAELVHFV [MAGE3.112M2V9 KMAELVHFV], the IC50 is 46 nM.

Another experiment concerns the target HLA-A*0206 (human). Put plainly: competition with 125I probe peptide, purified HLA.
For the molecule ALIETSYVKV [MAGE2.277 10-mer ALIETSYVKV], the IC50 amounted to 1950 nM.

In turn, KMAELVHFV [MAGE3.112M2V9 KMAELVHFV] gave an IC50 of 39 nM.

In the next experiment the target is HLA-A*6802 (human). Put plainly: competition with 125I probe peptide, purified HLA.
As to ALIETSYVKV [MAGE2.277 10-mer ALIETSYVKV], the half-maximal inhibitory concentration (IC50) was found to be 3080 nM.

KLAELVHFL [MAGE3.112L2 KLAELVHFL]: the IC50 came out at 400 nM.

In the case of KLAELVHFV [MAGE3.112L2V9 KLAELVHFV], the IC50 was 73 nM. This IC50 lies about 5.5-fold lower than the previous one.

The target in the next experiment is HLA-DRB1*0301 (human). Put plainly: inhibition of 125I probe peptide binding to purified HLA.
Take IIAIEGDCAPEEKIW: the relative binding ratio was 0.066 IC50 standard/IC50 peptide.

For a further experiment, the target named is HLA-DRB1*0301 (human). The description is as above. This is another data set of the same source.
With IIAIEGDCAPEEKIW, the relative binding ratio is 0.066 IC50 standard/IC50 peptide.

The next experiment deals with HLA-A*0201 (human). Nature of the experiment: competition with 125I probe peptide, purified HLA, gel filtration. A general note: In gel filtration, larger molecules generally elute earlier.
Regarding GLEARGEAL [MAGE3 peptide, position 15, 9 amino acids], the relative binding ratio is 0.0001 ratio (IC50 standard / IC50 test peptide).

Another experiment deals with HLA-A*0201 (human). Put plainly: competition with 125I-labelled probe peptide for purified HLA-A*0201.
For the molecule GLEARGEAL [MAGE2 peptide, position 15, 9 amino acids], the relative binding ratio was 0.0001 ratio.

(Values after patent US20040053822A1 (published 2004).)
